Results: patent publication US20020048812A1, “Isolation and in vitro differentiation of conditionally immortalized murine olfactory receptor neurons” (priority 2000, published 2002)
“Also recorded” adds a separate entry of the source.

Tests used:
[1] = test system: NST+ cells in the heterogeneous culture; experiment: Counting NST+ cells (anti-NST labeling) in heterogeneous olfactory cell cultures with growth factors; type: cell-based, mouse; details: for Normalized # of NST+ Cells: 100 ng.ml^−1
Experimental: FIG. 2A. Interferon causes a significant, dose-dependent increase in the number of NST+ cells in the heterogeneous culture, with an EC50 of 0.4 U.ml^−1. Cells were incubated at 33° C. and were stained with anti-NST and rhodamine-coupled secondary antibodies seven days after plating. Cell counts were obtained from ten randomly selected areas in each experiment. Data were normalized to the mean number of NST+ cells in the absence of interferon and each point represents the mean ±S.E.M from three experiments.
FIG. 2B. EGF (•) and NGF (□) both have mitogenic effects in permissive conditions over and above the effect of interferon. NST+ cells were counted as described in (A) and were normalized to baseline levels in the presence of interferon (40 U.ml^−1). […] Except for the presence of interferon (40 U.ml^−1), all experimental conditions were as in A.
To determine the optimal conditions for cell survival, growth, differentiation and maturation, cells were cultured in permissive and non-permissive conditions in the presence of interferon, EGF, NGF, BDNF and NT-3. […] The effects of EGF, NGF, BDNF and NT-3 on cell maturation in non-permissive culture conditions were
To keep the amount of expressed TAg to the minimum required for immortalization (Noble et al., 1995), heterozygous offspring from homozygous male H-2K^b-tsA58 transgenic and C57B1 female mice (Charles River Laboratories, Wilmington Mass., and Jackson Laboratory, Bar Harbor, Me., respectively) were used to generate the conditionally immortal neuronal cell culture. Cells were isolated in a procedure modified from a previously established technique (Ronnett et al., 1991). Briefly, post-natal day 1-3 animals were decapitated and the heads were sectioned longitudinally. The olfactory epithelium and nasal septum were removed and placed in an Eppendorf tube containing 500 μl culture medium. The culture medium consisted of Minimum Essential Medium in which the L-valine has been replaced by D-valine (MDV). This was supplemented with 10% fetal bovine serum (FBS), 4 mM glutamine, kanamycin (100 μg.ml^−1), gentamicin (50 U.ml^−1) and amphotericin B (2.5 μg.ml^−1; all from Gibco BRL, Gaithersburg, Md.). The MDV medium was chosen because fibroblasts lack D-amino acid oxidase and the reduction of L-valine inhibits fibroblast survival and growth (Gilbert et al., 1986). Tissue was centrifuged at low speed for two minutes and then most of the medium was removed. The cell pellet was chopped briefly with a pair of fine-point scissors before being resuspended in supplemented cell culture medium. The resultant cell clumps and cell suspension were plated out onto 2- or 4-chamber glass slides (Nunc, Naperville, Ill.) or plastic dishes (Fisher Scientific, Pittsburgh, Pa.). To enhance ORN adhesion, all cell culture materials were pretreated with laminin (0.125 mg.ml^−1 in serum-free media, Collaborative Biomedical Products, Bedford, Mass.) for at least 12 hours, prior to plating. Cells were maintained in culture at 33° C. (the permissive temperature for the SV40 TAg) and, to stimulate transcription of the transgene, the culture medium was supplemented with murine γ-interferon (40 U.ml^−1, Genzyme, Cambridge, Mass.). Provisionally, in permissive conditions, the cell culture medium was supplemented with epidermal growth factor (EGF, 20 ng.ml^−1, Gibco BRL) and 2.5 S nerve growth factor (NGF, 10 ng.ml^−1, Gibco BRL) before thorough characterizations of their effects were made in later experiments.
To determine optimum conditions for cell survival, growth, differentiation or maturation, numerous combinations of culture conditions were tested. These included i) removal of the olfactory epithelium from newborn, 4-week-old, and sexually mature animals, ii) subjecting tissue to digestion by trypsin (Gibco BRL, 0.5 g.l^−1 for 60 minutes at 37° C.), iii) addition of growth factors to the culture medium and iv) the use of diverse culture media. […]

[2] = test system: olfactory marker protein (OMP); experiment: OMP expression by Western blot in cells in non-permissive conditions; type: cell-based, mouse; details: 37° C., heterogeneous cell cultures, 15 μg protein per lane
Experimental: FIG. 2C. Effects of EGF, NGF, BDNF and NT-3 on OMP expression as determined by Western blot. Cells were maintained in non-permissive conditions at 37° C. in the absence of growth factors (C) or in presence of EGF (E), NGF (N), BDNF (B) or NT-3 (3). Samples were isolated from the heterogeneous cell cultures and from olfactory tissue (T), and were separated on a SDS-polyacrylamide gel (15 μg protein per lane). OMP is a 19 kD protein and, in situ, is expressed only in mature olfactory receptor neurons. OMP was not detected in control cells (C), cultured in the absence of growth factors or in cells incubated in the presence of EGF.
assayed by Western blot detection of olfactory marker protein (OMP), a marker of mature olfactory receptor neurons (Margolis, 1988).
Cells were always maintained in permissive culture conditions except when attempts were made to obtain a differentiated phenotype through transgene inactivation. In this case, cells were incubated in non-permissive culture conditions, i.e. at 37° C. in γ-interferon-free media for seven days, before the effects of transgene inactivation were determined. The effects of EGF, NGF, BDNF and NT-3 in promoting cell maturation/differentiation were assessed and, based on those experiments, BDNF and NT-3 were routinely added to the culture medium for cells in non-permissive culture conditions. In both culture environments, the air was kept humidified and contained 5% CO2.
Cells were scraped into a cold isolation buffer containing 20 mM Na(N-tris[hydroxymethyl]methyl-2-aminoethanesulfonic acid) (Na TES), 10 mM mannitol and 1% Triton X-100 at pH 7.4. The isolation buffer was supplemented with phenylmethylsulfonyl fluoride (30 μg.ml^−1), leupeptin (2 μg.ml^−1), benzamidine (16 μg.ml^'1), pepstatin (2 μg.ml^−1), and lima bean trypsin inhibitor (50 μg.ml^−1) to prevent protease activity. After five freeze/thaw cycles, cell extracts were centrifuged at 2,000 g for 5 minutes to pellet nuclei and cell debris. […]

B1: NT-3: neurotrophin-3 (Peprotech) (protein, UniProt P20783 139-257, looked up)
Neurotrophin-3: YAEHKSHRGEYSVCDSESLWVTDKSSAIDIRGHQVTVLGEIKTGNSPVKQYFYETRCKEARPVKNGCRGIDDKHWNSQCKTSQTYVRALTSENNKLVGWRWIRIDTSCVCALSRKIGRT
modifications: Neurotrophin-3
With B1 the “Normalized # of NST+ Cells” value ([1]; 33° C., in the presence of 40 U.ml^−1 interferon, normalized to that point) was 0.8 ± 0.1, the “Normalized # of NST+ Cells” value ([1]; 37° C.) was 1.4 ± 0.1 and the “Effect on the number of NST+ cells (in words)” value ([1]; permissive conditions (33° C.)) was “no effect”. For the same molecule, the “OMP expression detected by Western blot (in words)” value [2] was “significant expression of OMP could be observed; also recorded: greater from cells incubated with NT-3 than with BDNF; also recorded: most readily detected”.
